Laboratory results as given in article PMC7583906, “Functional Recovery of a GCDH Variant Associated to Severe Deflavinylation—Molecular Insights into Potential Beneficial Effects of Riboflavin Supplementation in Glutaric Aciduria-Type I Patients” (International Journal of Molecular Sciences, 2020).
Where “and” joins values, the source holds several entries; their conditions need not be identical. Identical values can stand only once.

Molecular target: the molecule itself
Assay: SEC; Superdex 200 10/300 GL, 10 mM HEPES pH 7.8, 150 mM NaCl, typically 0.5 mg applied; holoprotein (FAD bound) as purified; Gaussian deconvolution of the profile

| Protein | stoichiometry N |
| --- | --- |
| glutaryl-coenzyme A (CoA) dehydrogenase, wild-type (GCDH-WT) (enzyme, human, human glutaryl-CoA dehydrogenase (GCDH), recombinant; source: E. coli BL21 (DE3), soluble extract incubated overnight with excess FAD, purified (HisTrap HP)) EFDWQDPLVLEEQLTTDEILIRDTFRTYCQERLMPRILLANRNEVFHREIISEMGELGVLGPTIKGYGCAGVSSVAYGLLARELERVDSGYRSAMSVQSSLVMHPIYAYGSEEQRQKYLPQLAKGELLGCFGLTEPNSGSDPSSMETRAHYNSSNKSYTLNGTKTWITNSPMADLFVVWARCEDGCIRGFLLEKGMRGLSAPRIQGKFSLRASATGMIIMDGVEVPEENVLPGASSLGGPFGCLNNARYGIAWGVLGASEFCLHTARQYALDRMQFGVPLARNQLIQKKLADMLTEITLGLHACLQLGRLKDQDKAAPEMVSLLKRNNCGKALDIARQARDMLGGNGISDEYHVIRHAMNLEAVNTYEGTHDIHALILGRAITGIQAFTASK | 4 |
| GCDH-p.Val400Met clinical variant (enzyme, human, human glutaryl-CoA dehydrogenase (GCDH), disease variant p.Val400Met of glutaric aciduria type I, recombinant; The assays tell the states apart; also called holo GCDH-p.Val400Met; apo GCDH-p.Val400Met; source: E. coli BL21 (DE3), purified (HisTrap HP); holo form from soluble extract incubated overnight with excess FAD, apo form without the FAD incubation) EFDWQDPLVLEEQLTTDEILIRDTFRTYCQERLMPRILLANRNEVFHREIISEMGELGVLGPTIKGYGCAGVSSVAYGLLARELERVDSGYRSAMSVQSSLVMHPIYAYGSEEQRQKYLPQLAKGELLGCFGLTEPNSGSDPSSMETRAHYNSSNKSYTLNGTKTWITNSPMADLFVVWARCEDGCIRGFLLEKGMRGLSAPRIQGKFSLRASATGMIIMDGVEVPEENVLPGASSLGGPFGCLNNARYGIAWGVLGASEFCLHTARQYALDRMQFGVPLARNQLIQKKLADMLTEITLGLHACLQLGRLKDQDKAAPEMVSLLKRNNCGKALDIARQARDMLGGNGISDEYHMIRHAMNLEAVNTYEGTHDIHALILGRAITGIQAFTASK | 4 and 2 |
